Reference: patent US20240400689A1 (ANTENGENE BIOLOGICS, published 2024)

T1: human CD276 protein (human, UniProt Q5ZPR3 29-534)
T1 construct: whole, on cells; for SKOV3 and the other cancer lines the protein is the cells' own; also called B7-H3; B7H3
T1 sequence (looked up): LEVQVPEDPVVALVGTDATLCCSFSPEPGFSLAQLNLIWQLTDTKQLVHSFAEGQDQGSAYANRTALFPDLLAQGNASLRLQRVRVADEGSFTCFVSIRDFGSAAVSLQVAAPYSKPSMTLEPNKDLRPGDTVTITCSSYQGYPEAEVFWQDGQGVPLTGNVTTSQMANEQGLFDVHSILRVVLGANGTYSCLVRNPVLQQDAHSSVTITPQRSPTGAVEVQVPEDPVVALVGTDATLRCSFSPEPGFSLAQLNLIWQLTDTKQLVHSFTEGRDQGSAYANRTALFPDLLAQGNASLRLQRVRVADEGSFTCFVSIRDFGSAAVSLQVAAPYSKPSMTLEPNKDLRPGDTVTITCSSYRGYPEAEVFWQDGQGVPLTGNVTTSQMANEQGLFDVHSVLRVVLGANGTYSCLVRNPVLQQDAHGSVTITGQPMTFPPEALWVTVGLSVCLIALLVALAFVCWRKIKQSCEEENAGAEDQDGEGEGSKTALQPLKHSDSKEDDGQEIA

T2: mouse CD276 protein (mouse, UniProt Q8VE98 29-316)
T2 construct: whole, on cells; also called mCD276; CHO-S-mCD276
T2 sequence (looked up): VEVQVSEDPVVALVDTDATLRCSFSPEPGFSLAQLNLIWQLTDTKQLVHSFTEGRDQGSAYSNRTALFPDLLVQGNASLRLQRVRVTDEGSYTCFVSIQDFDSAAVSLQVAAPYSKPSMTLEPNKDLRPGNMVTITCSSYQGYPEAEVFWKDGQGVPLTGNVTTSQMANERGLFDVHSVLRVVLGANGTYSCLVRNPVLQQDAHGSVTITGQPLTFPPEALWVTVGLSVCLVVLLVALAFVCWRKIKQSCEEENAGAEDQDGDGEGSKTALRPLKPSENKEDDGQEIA


Columns and labels:
human CD276 protein = biological target: T1, human CD276 protein; test: FACS on CHO-S-hCD276 cells
Experimental: (§1) Screening & Expansion—The subcloning plates were screened by protein or cell-based Elisa, and the subclones with good binding ability were expanded to 24-wells for confirmation tests. The specificity and cross-reactivity of these subclones were confirmed with FACS analysis. Briefly, parental CHO-S cells, CHO-S-hCD276, CHO-S cell line stably over-expressing Macaca fascicularis CD276, CHO-K1 S, cell line stably over-expressing mouse CD276 were incubated with antibodies produced by each subclone respectively. Fluorescent dye-conjugated secondary antibody was used to detect the binding of the primary antibody with the cells. Median fluorescence intensity was measured by FACS analysis.

[1] = biological target: T3, Macaca fascicularis CD276 (Macaca fascicularis); test: FACS on CHO-S-cynoCD276 cells
T3 construct: whole, on cells; also called cynomolgus monkey CD276; cynoCD276
Experimental: as §1

mouse CD276 protein = biological target: T2, mouse CD276 protein; test: FACS on CHO-S-mCD276 cells
Experimental: as §1

| Binder | FACS MFI (human CD276 protein) | FACS MFI [1] | FACS MFI (mouse CD276 protein) |
| --- | --- | --- | --- |
| 3-C2-C3-E7 (antibody, V domains shown, mouse monoclonal antibody (hybridoma)) VH: EVQLQQSGPELVKPGASVKISCKTSGYTFTENTMHWVKQSHGKRLEWIGGINPNTGGTTYNQKFKGKATLTVDKSSSTAYMELRSLTSEDSAVYYCARRGTNWEHWYFDVWGAGTTVTVSS VL: QIVLTQSPAIMSASPGEKVTMTCSASSSVSYMHWYQQKSGTSPKRWIYDTSKLASGVPARFSGSGSGTSYSLTISSMEAEDAATYYCQQWSSNPLTFGAGTKLELK | 38800 | 2110 | 2770 |
| 2-A7-B10-A3 (antibody, V domains shown, mouse monoclonal antibody (hybridoma)) VH: QVQLQQSGAELVRPGVSVKISCKGSGYTFTDYAMHWVKQSHAKSLEWIGVINTNYVNTSYNQKFKGKATMTVDKSSSTAFMELARLTSEDSAIYYCARGGKYGNYVFFFAYWGQGTLVTVSA VL: DIQMTQTTSSLSASLGDRVTISCRASQDISNYLNWYQQKPDGTVKLLIYYTSRLHSGVPSRFSGSGSGTDYSLTISNLEQEDIATYFCQQGNTLPYTFGGGTKLEIK | 58900 | 56000 | 2040 |
| 5-D1-G6-D9 (antibody, V domains shown, mouse monoclonal antibody (hybridoma)) VH: EVQLQESGAELVKPGASVKLSCKTSGLTFSTNYISWLKQKPGQSLEWIAWIYGGNGGTSYNQRFTGKAQLTVDTSSSTAYMQFSSLTTEDSAIYYCTSHDYYGGPMDYWGQGTSVTVSS VL: DIQMTQTTSSLSASLGDRVTISCRASQDISNYLNWYQQKPDGTVKLLIYFTSRLHSGVPSRFSASGSGTDYSLTISNLEQEDIATYFCQQTNTLPWTFGGGTKLEIK | 45300 | 62200 | 1530 |
| 9-E8-F9-C10 (antibody, V domains shown, mouse monoclonal antibody (hybridoma)) VH: EVQLQQSGAELVRPGTSVKISCKASGYAFSDYWLSWVKQRPGHGLEWIGDICPGSGNIYYNERFKDKVILTADRSSSTAYLQFSSLTSEDSVVYFCTRLITRVIDYWGQGTSVTVST VL: ENVLTQSPAIMSASPGEKVTMTCSASSSVNYMHWYQQKSSTSPKLWIYDTSKLSSGVPGRFSGSGSGNSYSLTISSMEAEDVATYYCFQGSGYPLTFGAGTKLELK | 7610 | 5700 | 1950 |
| 6-D8-E7-A11 (antibody, V domains shown, mouse monoclonal antibody (hybridoma)) VH: QVHLQQPGAELVKPGASVKLSCKASGYTFTNYWMHWVKRRPGQGLEWIGMIHPNSGTTSFNEKFKSKATLTVDKSSSTAYMQLSSLTSEDSAVYYCAGYYGSSFSWFTYWGQGTLVTVSA VL: QAVVTQESALTTSPGGTVILTCRSSTGAVTTSNFANWVQEKPDHLFTGLIGGTSNRAPGVPVRFSGSLIGDKAALTITGAQTEDDAMYFCALWYSTHYVFGGGTKVTVL | 37900 | 101000 | 92600 |
| 3-F2-E7-F9 (antibody, V domains shown, mouse monoclonal antibody (hybridoma)) VH: QVQLQQSGPELVRPGVSVKISCKGSGYTFTDYTMHWVKESHAKSLEWIGVISTYYGNTNYNQKFKGKATLTVDKSSSTAYMELAGLTSEDSAIYYCARASYGSGYGPYYWYFDVWGAGTTVTVSS VL: DIQMTQSPASLFASVGETVTITCRASEKIYSYLAWYFQKQGKSPQFLVYNANALAEGVPSRFSGSGSGTQFSLKINSLQPEDFGTYYCQHHYGTPVTFGAGSKLELK | 52300 | 35700 | 1140 |
| 20-A2-D10-G8 (antibody, V domains shown, mouse monoclonal antibody (hybridoma)) VH: QVQLQQSGPELVRPGVSVKISCKGSGYTFTDYTMHWVKESHAQSLEWIGVISTYYGNTNYNQNFKGKATLTVDKSSSTAYMELAGLTSEDSAIYYCARASYGSGYGPYYWYFDVWGAGTTVTVSS VL: DIQMTQSPASLFASVGETVTITCRASEKIYSYLAWYFQKQGKSPQFLVYNANALAEGVPSRFSGSGSGTQFSLKIKSLQPEDFGTYYCQHHYGSPVTFGAGSKLELK | 77100 | 9020 | 1260 |
| 9-G2-H6-E4 (antibody, V domains shown, mouse monoclonal antibody (hybridoma)) VH: EVQLQQSGPDLVKPGASVKISCKASGYSFTGYFMNWVKQRHGKSLEWIGYINPNNGDTIYNQKFKGKATLTVDKSSSTAHMELLSLTSEDSAVYYCGRGGLPFGALDYWGQGTSVTVSS VL: DIVMSQSPSSLAVSVGEKVNMSCKSSQSLLYSRNQKNYLAWNQQKPGQSPKLLIYWASARESGVPDRFTGSGSGTDFTLTISSVKAEDLAAYYCQQYHSYPYTFGGGTKLELK | 49600 | 5400 | 27600 |

The next lines start with the values.

| FACS MFI (human CD276 protein) | FACS MFI [1] | FACS MFI (mouse CD276 protein) | Binder |
| --- | --- | --- | --- |
| 5940 | 5390 | 1370 | 25-D3-G4-C6 (antibody, V domains shown, mouse monoclonal antibody (hybridoma)) VH: EIQLQQTGPELVKPGASVKISCKASGYSFTDYIILWVKQSHGMSLEWIGNINPYYNSTYYNLKFKGKATLTVDKSSSTAYMQLDSLTSEDSAVYYCARDSFDWYFGVWGAGTTVTVSS VL: DVVMTQTPLSLPVSLGDQASISCRSSQSLVHSNGNTYLHWYLQKPGQSPKLLIYKVSNRFSGVPDRFSGSGSGTDFTLKISRVETEDLGIYFCSQSTHVPPLTFGAGTKLELK |
| 94700 | 87900 | 1590 | 27-E7-D8-C7 (antibody, V domains shown, mouse monoclonal antibody (hybridoma)) VH: EVQLQESGPELVRPGVSVKISCKGSGYTFTDYAMHWVKQSHAKSLEWIGVINTYSDNTNYNRKFKGKATMTVDKSSSTAYMELARLTSEDSAIYYCARGLLLRSQLGVYFDYWGQGTTLTVSS VL: QIVLSQSPAILSASPGEKVTMTCRASSSVSYMHWYQQKPGSSPKPWIYATSNLASGVPARFSGSGSGTSYSLTISRVEAEDAATYYCQQWSSNPWTFGGGTKLEIK |
| 127000 | 36700 | 1300 | 23-F10-G4-F11 (antibody, V domains shown, mouse monoclonal antibody (hybridoma)) VH: EVQLQESGPDLVRPGALVKLSCKSSGFNIKDYPIHWVRQRPEQGLEWIGWFDPDNGNVIYDPRFQGKASITADTSSNTAYLQLNSLTSEDTAVYYCSSPYGAMDYWGQGTSVTVSS VL: QIVLTQSPEIMSASPGEKVTMTCSASSSVSYIHWYQQKSGTSPKRWIYDTSKLASGVPARFSGSGSGTSYSLTIRSMEAEDAATYYCQQGSSNPRTFGGGTKLEIK |
| 16000 | 80500 | 1350 | 27-F8-E10-E11 (antibody, V domains shown, mouse monoclonal antibody (hybridoma)) VH: EVQLQQSGPELVKPGASVKISCKTSGYTFTEYAMHWVKQSHGKILEWIGGINPNIGGTTYNQKFKDKATLTVDKSSSTASMELRSLTSEDSAVYYCARFLVPSTEGFTYWGQGTLVTVSA VL: QIVLTQSPAIMSASPGEKVTMTCSASSSVSYMHWYQQKSGTSPKRWIYDTSRVASGVPARFSGSGSGTSYSLTISSMEAEDAATYYCQQWSSNPLTFGAGTKLELK |
| 56300 | 40800 | 2080 | 28-G2-E6-B10 (antibody, V domains shown, mouse monoclonal antibody (hybridoma)) VH: QVQLQQPGAELVKPGASVKLSCKASGYTFTSYWMHWVKQRPGQGLEWIGMIHPNSDTTDYNEKFKTKATLTVDKSSSTAYMQLSSLTSEDSAVFYCARGGLGPHYFVYWGQGTTLTVSS VL: QAVVTQESALTTSPGGTVILTCRSSTGAVTTSNYASWVQEKPDHLFTGLIGGTSNRAPGVPVRFSGSLIGDKAALTITGAQTEDDAMYFCALWYSPHYVFGGGTKVTVL |
| 85100 | 15200 | 1180 | 24-C10-F9-G7 (antibody, V domains shown, mouse monoclonal antibody (hybridoma)) VH: EVQLQESGPELVRPGVSVKISCKGSGYTFTDHTMHWVKESHAQSLEWIGVISTYYGNTNYNQNFKGKATLTVDKSSSTAYMELAGLTSEDSAIYYCARASYGSGYGPYYWYFDVWGAGTTVTVSS VL: DIQMTQSPASLFASVGETVTITCRASEKIYSYLAWYFQKQGKSPQFLVYNANALAEGVPSRFSGSGSGTQFSLKINSLQPEDFGTYYCQHHYGTPVTFGAGSKLELK |
| 127000 | 83500 | 20600 | 18-F9-D8-G7 (antibody, V domains shown, mouse monoclonal antibody (hybridoma)) VH: EVQLQQSGPELVRPGVSVKISCKGSGYTFTDYAMHWVKQSHAQSLEWIGIINTYSGDTNYNQKFKGKATMTVDKSSSTAYMGLARLTSEDSAIFYCARGGGNYPYWYFDVWGAGTTVTVSS VL: ENVLTQSPAIMSASPGEKVTMTCRASSSVSSSYLHWYQQKSGDSPKLWIYSTSNLASGVPARFSGSGSGTSYSLTISSVEAEDAATYYCQQFSVYPLTFGAGTKLEIK |
| 141000 | 19500 | 1830 | 16-C6-F7-F5 (antibody, V domains shown, mouse monoclonal antibody (hybridoma)) VH: QIQLVQSGPEVKKPGETVKISCKASGYTFTKYGINWVKQAPGEGLKWMGWIWTYTGKPTYGDDFKGRFAFSLETSASTAYLQISDLKIEDMATYFCARDDGYYYTMNYWGQGTSVTVSS VL: DIVMTQTPLSLPVSLGDQASISCRSSQSLLHTNGDTYLHWYLQKAGQPPKLLIYKVSNRFSGVPDRFSGSGSGTDFTLKISRVEAEDLGVYFCSQSTHIPWTFGGGTKLEIK |
